Experimental data reported in paper PMC2855648.

How the values were obtained:
Experiment in all cases: initial velocity, spectrophotometric DTP/DTNB thiol assay
Format in all cases: biochemical, Escherichia coli
[1] = tested on: NC[C@H]1O[C@H](O[C@H]2[C@H](O)[C@@H](O[C@H]3O[C@H](CO)[C@@H](O)[C@H](N)[C@H]3O)[C@H](N)C[C@@H]2N)[C@H](N)[C@@H](O)[C@@H]1O; details: fixed saturating AcCoA, optimum pH 5.6, room temperature
[2] = tested on: CC(=O)SCCNC(=O)CCNC(=O)[C@H](O)C(C)(C)COP(=O)(O)OP(=O)(O)OC[C@H]1O[C@@H](n2cnc3c(N)ncnc32)[C@H](O)[C@@H]1OP(=O)(O)O; details: fixed saturating kanamycin B, optimum pH 5.6, room temperature
[3] = tested on: NC[C@@H]1O[C@H](O[C@H]2[C@@H](O)[C@H](O[C@@H]3[C@@H](O)[C@H](N)C[C@H](N)[C@H]3O[C@H]3O[C@H](CN)[C@@H](O)[C@H](O)[C@H]3N)O[C@@H]2CO)[C@H](N)[C@@H](O)[C@@H]1O; details: fixed saturating AcCoA, optimum pH 5.6, room temperature

Which results are given for “AAC(6′)-Ib-wt (Escherichia coli; R102W/Y179D)”?
Km [1]: 0.27 ± 0.01 µM; kcat [1]: 2.27 ± 0.05 s⁻¹; kcat/Km [1]: 8.38e+06 M⁻¹ s⁻¹; Km [2]: 35 ± 2 µM; kcat [2]: 2.32 ± 0.0667 s⁻¹; kcat/Km [2]: 66700 M⁻¹ s⁻¹; Km [3]: 20 ± 1 µM; kcat [3]: 3.08 ± 0.05 s⁻¹; kcat/Km [3]: 150000 M⁻¹ s⁻¹
